The source of these data is patent publication US20170268035, “GENOMIC PROBES” (Howard Hughes Medical Institute, published 2017).

The target in data set [1] is T1, dCas9-Halo (D10A/H840A SpCas9, nuclease-deficient) (Streptococcus pyogenes, UniProt Q99ZW2 SEQ:8-1375).
T1 chain: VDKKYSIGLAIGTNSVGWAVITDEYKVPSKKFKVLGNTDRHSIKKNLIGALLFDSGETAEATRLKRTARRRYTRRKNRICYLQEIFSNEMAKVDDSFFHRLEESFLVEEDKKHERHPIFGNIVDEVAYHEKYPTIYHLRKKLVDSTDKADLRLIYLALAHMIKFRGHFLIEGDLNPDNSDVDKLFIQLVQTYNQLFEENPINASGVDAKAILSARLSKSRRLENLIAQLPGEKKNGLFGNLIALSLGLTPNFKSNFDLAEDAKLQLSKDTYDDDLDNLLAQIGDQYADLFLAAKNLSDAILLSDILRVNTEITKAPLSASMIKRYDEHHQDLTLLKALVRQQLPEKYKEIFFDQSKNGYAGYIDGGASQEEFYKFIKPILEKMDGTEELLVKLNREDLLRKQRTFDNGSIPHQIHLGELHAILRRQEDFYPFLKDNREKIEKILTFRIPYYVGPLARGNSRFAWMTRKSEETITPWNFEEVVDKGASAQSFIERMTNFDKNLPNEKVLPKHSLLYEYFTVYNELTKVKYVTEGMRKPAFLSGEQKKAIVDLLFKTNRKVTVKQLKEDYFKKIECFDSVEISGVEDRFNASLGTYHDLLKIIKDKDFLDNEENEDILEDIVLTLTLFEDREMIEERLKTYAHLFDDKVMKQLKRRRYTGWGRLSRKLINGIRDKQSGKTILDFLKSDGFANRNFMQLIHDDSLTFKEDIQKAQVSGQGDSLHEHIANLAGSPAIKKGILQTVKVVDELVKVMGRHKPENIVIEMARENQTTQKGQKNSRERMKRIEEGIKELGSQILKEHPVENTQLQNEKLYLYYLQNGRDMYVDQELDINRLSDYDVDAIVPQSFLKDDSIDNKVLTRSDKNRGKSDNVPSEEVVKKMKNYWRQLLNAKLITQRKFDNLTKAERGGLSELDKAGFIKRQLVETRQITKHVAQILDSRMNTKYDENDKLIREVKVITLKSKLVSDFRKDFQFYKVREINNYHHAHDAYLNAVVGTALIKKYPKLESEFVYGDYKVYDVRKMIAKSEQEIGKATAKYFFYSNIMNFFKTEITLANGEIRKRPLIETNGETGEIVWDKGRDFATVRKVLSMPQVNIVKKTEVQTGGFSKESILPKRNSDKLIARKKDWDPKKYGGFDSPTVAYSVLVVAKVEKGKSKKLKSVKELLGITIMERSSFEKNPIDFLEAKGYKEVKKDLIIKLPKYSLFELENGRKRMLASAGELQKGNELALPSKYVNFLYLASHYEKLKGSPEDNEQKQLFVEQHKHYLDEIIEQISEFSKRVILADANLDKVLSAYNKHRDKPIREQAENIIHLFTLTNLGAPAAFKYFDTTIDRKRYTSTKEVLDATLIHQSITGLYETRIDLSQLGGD
Nature of the data set: EMSA; binary complex; 100-fold unlabelled sgRNA did not displace; room temperature. Particulars: tags: N-terminal His6, C-terminal HaloTag; JF549 or JF646 Halo ligand labelled; label: 5'-DY547. As to the method: The stability of the complex is evident from the lack of competition. The control lane (ctrl) indicates the reaction product from a mixture of Cy5 DNA and 30-fold of unlabeled target DNA with dCas9/sgRNA binary complex. As expected, only a small fraction of Cy5-DNA was incorporated into the dCas9 tertiary complex. (B) Competition EMSAs assessing the stability of the binary complex. (B, Left) The indicated fluorescent binary complex was assembled at room temperature for 10 min and incubated further with the indicated fold-amounts of unlabeled sgMajSat at room temperature for 10 min. Unlabeled target DNA was added to the solution subsequently to form a tertiary complex followed by gel electrophoresis. (B, Right) The DY547 intensity of the bands of the tertiary complex plotted as a histogram. The stability of the binary complex of dCas9 and DY547-sgRNA is evident from the lack of competition. The control lane (ctrl) indicates the reaction product from the binary complex formed by a mixture of DY547-sgMajSat and 100-fold of unlabeled sgMajSat with dCas9 protein. As expected, only a small fraction of DY547-sgMajSat was incorporated into the dCas9 tertiary complex. (C) Schematic of two-color CASFISH methods. […]
To explore the possibility of applying multiple dCas9/sgRNA species in one step for multicolor imaging, we assessed the stability of the binary complex by sgRNA competition assay.

Data set [2] concerns the target T1, dCas9-Halo (D10A/H840A SpCas9, …). Nature of the data set: EMSA; PAM TGG; tertiary complex stable to 100-fold competitor DNA and 1.5 h with 30-fold; 37 C. Particulars: tags: N-terminal His6, C-terminal HaloTag; JF549 or JF646 Halo ligand labelled; label: 5'-DY547; Cy5 (EMSA). As to the method:
The stability of the complex is evident from the lack of competition. Error bars represent SD of three independent experiments.
dCas9 protein and sgRNA were incubated together at room temperature for 10 min to examine the binary complex and subsequently were incubated with target DNA at 37° C. for 15 min to examine the tertiary complex. For the competition assay, an additional binary or tertiary complex reaction was performed after the addition of the competitor molecules. Resulting reaction mixtures were subjected to electrophoresis of 1% agarose gel in 1× Tris/borate/EDTA buffer containing 5 mM MgCl2 and were imaged with GE Typhoon Trio+Imagers.
Simultaneous imaging of multiple chromatin domains or genes is critical for studying chromatin interactions. To explore the possibility of using CASFISH to detect multiple DNA targets simultaneously, we first investigated the binding of CASFISH probes to target DNA by electrophoretic mobility shift assays (EMSA). […] To examine the stability of dCas9/sgMajSat binding to its target DNA, we carried out competition assays by adding excessive amounts of unlabeled target DNA to a preformed tertiary complex of JF549-dCas9/sgMajSat/Cy5-DNA. […]

B1: DY547-sgMajSat (ssRNA)
RNA: CCAUAUUCCACGUCCUACAGGUUUAAGAGCUAUGCUGGAAACAGCAUAGCAAGUUUAAAUAAGGCUAGUCCGUUAUCAACUUGAAAAAGUGGCACCGAGUCGGUGCUUUUUUU
On to B1, for which the binding result in data set [1] is on record as “binds”.

B2: DY547-sgMajSat ; major satellite target DNA (ssRNA ; dsDNA)
RNA: B1 RNA
DNA 1: TTTCTTGCCATATTCCACGTCCTACAGTGG
DNA 2: CCACTGTAGGACGTGGAATATGGCAAGAAA
As to B2, the binding result in data set [2] is listed as “binds”.
